Experimental data reported in US20130059772A1, “Use of Repeat Sequence Protein Polymers in Personal Care Compositions” (DANISCO US INC., priority 2003, published 2013).
Values joined by “and” are separate entries in the source; they are usually repeats but may differ in a detail not shown here. Equal values may be shown once.

Assay: Tensile mechanical properties of films (INSTRON Model 5564)
Type: physicochemical
Procedure: In this Example, experiments performed to determine tensile mechanical properties of SELP47K (Example 1 and 2) are described. Samples of SELP47K were prepared by freeze-drying purified SELP47K solution. The subsequent powder was re-dissolved in water to a solids concentration of approximately 5, 10 or 20%. These solutions were then mixed with plasticizers to an effective concentration of 1-3%. Plasticizers included in this study were polyethylene glycol 200, glycerin, and triethanolamine. Eleven milliliters of these solutions were poured into a large (6 inch square) polyethylene weigh boats and the solutions were allowed to dry either in an oven at 37° C. or room temperature for 1 to 3 days. Subsequent films were successfully peeled from the weigh boat with a spatula without any damage to the polymer film.
The films were then cut into tensile specimens using a very sharp fabric cutting wheel. The specimens were approximately 6 cm long and 2.5 cm wide. The gauge length for these samples (length of sample between tensile testing clamps) was set to 3 cm and the thickness of the sample was measured at 5 points along the gauge length using a digital thickness coating instrument. The thickness of the samples was recorded as the average of the 5 points and varied from 46.4 to 188.2 microns. Both the sample width and sample thickness were entered into an Instron software program (Merlin) to enable it to calculate the tensile strength and tensile modulus.
The samples were loaded into the jaws of an INSTRON® Model 5564 apparatus making sure the gauge length was always set to 3 cm and that the sample was not under any static load or stress. […] The results of the stress-strain measurements can be seen for four of the samples in FIG. 1. The elongation % of SELP47K was determined to be 8.4 for 20% SELP47K solution film made at room temperature (RM). The tensile strength was determined to be 65.9 megapascals (MPa), and the tensile modulus was determined to be 1716.50 MPa. The results of plastisizer-SELP47K films reveal strong correlation between concentration and mechanical properties measured. For 3% PEG200 containing SELP47K, the films elongation % reached 541.

[1] = Example 1 Material [GC2596-26-A], film from 05% sol., 37 C.
[2] = Example 1 Material [GC2596-26-A], film from 05% sol., RM
[3] = Example 1 Material [GC2596-26-A], film from 10% sol., 37 C.
[4] = Example 1 Material [GC2596-26-A], film from 10% sol., RM
[5] = Example 1 Material [GC2596-26-A], film from 20% sol., 37 C.
[6] = Example 1 Material [GC2596-26-A], film from 20% sol., RM
[7] = Example 2 Material [GC2596-26-B], film from 10% sol., 37 C.

Substance: SELP47K: silk-elastin repeat sequence protein copolymer, head-[(GAGAGS)2(GVGVP)3GKGVP(GVGP)4(GAGAGS)2]13-tail (SEQ ID NO:19), 886 amino acids
- Tensile Strain [1]: 2.6%
- Tensile Strength [1]: 19.83 MPA
- Tensile Strain [2]: 2.4%
- Tensile Strength [2]: 21.43 MPA
- Tensile Strain [3]: 3.6%
- Tensile Strength [3]: 62.06 MPA
- Tensile Strain [4]: 3.5%
- Tensile Strength [4]: 62.98 MPA
- Tensile Strain [5]: 8.6%
- Tensile Strength [5]: 74.14 MPA
- Tensile Strain (elongation %) [6]: 8.4%
- Tensile Strength [6]: 65.9 MPA and 65.90 MPA
- Tensile Strain [7]: 6.98%
- Tensile Strength [7]: 39.34 MPA
- tensile modulus (film from 20% SELP47K solution made at room temperature (RM)): 1716.50 MPa
